Laboratory results taken from PMC4089491, “BuD, a helix–loop–helix DNA-binding domain for genome modification”.

Tests used:
[1] = target: Variant2 ND (Burkholderia rhizoxinica) (UniProt E5AV36); experiment: ITC; details: FA and ITC: 25 mM HEPES pH 8, 150 mM NaCl, 0.2 mM TCEP, 298 K, SPR: HBS-EP+ (10 mM HEPES pH 7.4, 150 mM NaCl, 3 mM EDTA, 0.05% P20)
[2] = target: BurrH Variant2 (CAPNS1) (Burkholderia rhizoxinica) (UniProt E5AV36); experiment: ITC; details: FA and ITC: 25 mM HEPES pH 8, 150 mM NaCl, 0.2 mM TCEP, 298 K, SPR: HBS-EP+ (10 mM HEPES pH 7.4, 150 mM NaCl, 3 mM EDTA, 0.05% P20)
AvrBs3 TALE = experiment: SPR; details: FA and ITC: 25 mM HEPES pH 8, 150 mM NaCl, 0.2 mM TCEP, 298 K, SPR: HBS-EP+ (10 mM HEPES pH 7.4, 150 mM NaCl, 3 mM EDTA, 0.05% P20)
[3] = target: Variant3 ND (Burkholderia rhizoxinica) (UniProt E5AV36); experiment: ITC; details: FA and ITC: 25 mM HEPES pH 8, 150 mM NaCl, 0.2 mM TCEP, 298 K, SPR: HBS-EP+ (10 mM HEPES pH 7.4, 150 mM NaCl, 3 mM EDTA, 0.05% P20)
[4] = target: BurrH Variant3 (RAG1) (Burkholderia rhizoxinica) (UniProt E5AV36); experiment: ITC; details: FA and ITC: 25 mM HEPES pH 8, 150 mM NaCl, 0.2 mM TCEP, 298 K, SPR: HBS-EP+ (10 mM HEPES pH 7.4, 150 mM NaCl, 3 mM EDTA, 0.05% P20)
[5] = target: Variant4 ND (Burkholderia rhizoxinica) (UniProt E5AV36); experiment: ITC; details: FA and ITC: 25 mM HEPES pH 8, 150 mM NaCl, 0.2 mM TCEP, 298 K, SPR: HBS-EP+ (10 mM HEPES pH 7.4, 150 mM NaCl, 3 mM EDTA, 0.05% P20)
[6] = target: BurrH Variant4 (RAG1) (Burkholderia rhizoxinica) (UniProt E5AV36); experiment: ITC; details: FA and ITC: 25 mM HEPES pH 8, 150 mM NaCl, 0.2 mM TCEP, 298 K, SPR: HBS-EP+ (10 mM HEPES pH 7.4, 150 mM NaCl, 3 mM EDTA, 0.05% P20)
BurrH [7] = target: T1, BurrH (Burkholderia rhizoxinica, UniProt E5AV36 1-771); experiment: SPR; details: FA and ITC: 25 mM HEPES pH 8, 150 mM NaCl, 0.2 mM TCEP, 298 K, SPR: HBS-EP+ (10 mM HEPES pH 7.4, 150 mM NaCl, 3 mM EDTA, 0.05% P20)
T1 sequence: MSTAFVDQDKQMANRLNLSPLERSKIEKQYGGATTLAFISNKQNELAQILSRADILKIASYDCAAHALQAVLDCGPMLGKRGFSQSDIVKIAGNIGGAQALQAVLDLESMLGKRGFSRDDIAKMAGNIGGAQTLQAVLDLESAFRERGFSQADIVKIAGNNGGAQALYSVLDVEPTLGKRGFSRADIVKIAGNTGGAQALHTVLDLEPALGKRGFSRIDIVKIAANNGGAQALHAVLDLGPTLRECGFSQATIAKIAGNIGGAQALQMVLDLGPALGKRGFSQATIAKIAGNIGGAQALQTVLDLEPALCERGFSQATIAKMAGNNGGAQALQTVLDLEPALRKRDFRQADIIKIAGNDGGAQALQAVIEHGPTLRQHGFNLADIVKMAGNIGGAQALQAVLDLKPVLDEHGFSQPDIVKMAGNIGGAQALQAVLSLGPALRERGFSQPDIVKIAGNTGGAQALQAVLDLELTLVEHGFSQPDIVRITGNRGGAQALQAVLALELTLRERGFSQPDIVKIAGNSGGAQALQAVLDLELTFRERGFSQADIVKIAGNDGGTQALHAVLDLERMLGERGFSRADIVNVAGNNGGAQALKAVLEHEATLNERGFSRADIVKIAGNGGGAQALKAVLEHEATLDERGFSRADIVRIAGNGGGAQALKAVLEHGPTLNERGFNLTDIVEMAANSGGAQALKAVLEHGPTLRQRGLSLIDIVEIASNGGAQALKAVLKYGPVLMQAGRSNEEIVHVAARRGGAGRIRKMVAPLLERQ

[8] = target: BurrH Variant1 (CAPNS1) (Burkholderia rhizoxinica) (UniProt E5AV36); experiment: ITC; details: FA and ITC: 25 mM HEPES pH 8, 150 mM NaCl, 0.2 mM TCEP, 298 K, SPR: HBS-EP+ (10 mM HEPES pH 7.4, 150 mM NaCl, 3 mM EDTA, 0.05% P20)
[9] = target: Variant1 ND (Burkholderia rhizoxinica) (UniProt E5AV36); experiment: ITC; details: FA and ITC: 25 mM HEPES pH 8, 150 mM NaCl, 0.2 mM TCEP, 298 K, SPR: HBS-EP+ (10 mM HEPES pH 7.4, 150 mM NaCl, 3 mM EDTA, 0.05% P20)
BurrH [10] = target: T1, BurrH; experiment: fluorescence anisotropy; FA and ITC: 25 mM HEPES pH 8, 150 mM NaCl, 0.2 mM TCEP, 298 K; SPR: HBS-EP+ (10 mM HEPES pH 7.4, 150 mM NaCl, 3 mM EDTA, 0.05% P20), 298 K; details: protein: recombinant; label: 5' 6-FAM
BurrH [11] = target: T1, BurrH; experiment: ITC; FA and ITC: 25 mM HEPES pH 8, 150 mM NaCl, 0.2 mM TCEP, 298 K; SPR: HBS-EP+ (10 mM HEPES pH 7.4, 150 mM NaCl, 3 mM EDTA, 0.05% P20), 298 K; details: protein: recombinant

Which results are given for “TTTTGTCCGGGAACCCAGAGCTA (double strand) [V2 target]”?
Kd [1]: 215 nM; Kd [2]: 149 nM

For AvrBs3 target, SPR duplex, which Kd (AvrBs3 TALE) is on record?
Its Kd is 0.22 nM.

With “TTCAGTGTTTATGGTTACTTATA (double strand) [V3 target]” as the molecule, how does the Kd [3] read?
Its Kd is 26 nM.

And the Kd [4]?
Its Kd is 30 nM.

“TTGTATATATTTAAGCACTTATA (double strand) [V4 target]” was tested. Which Kd [5] did it give?
Its Kd is 14 nM.

And the Kd [6]?
The Kd was 12 nM.

For BurrH target, SPR duplex, which Kd (BurrH [7]) is on record?
The Kd was 0.36 nM.

And the Kd (AvrBs3 TALE)?
Its Kd is 1000 nM.

For “TTGGCTCTGTGGGCTCGGGTCTA (double strand) [V1 target]”, which Kd [8] is on record?
The Kd was 29 nM.

What about the Kd [9] of the same molecule?
The Kd was 29 nM.

B1: FA duplex 6 (C4 C12 T13) (dsDNA)
DNA 1: TTAAGCGAAGCAACTACGTTATA
DNA 2: TATAACGTAGTTGCTTCGCTTAA
How did the Kd (BurrH [10]) turn out when B1 was run?
Its Kd is 43 ± 10 nM.

B2: BurrH DNA target duplex (dsDNA)
DNA 1: TTAAGAGAAGCAAATACGTTATA
DNA 2: TATAACGTATTTGCTTCTCTTAA
With B2 as the molecule, how does the Kd (BurrH [11]) read?
Its Kd is 25 ± 4.3 nM.

B3: FA duplex 1 (A4 A12 A13) (dsDNA)
DNA 1: TTAAGAGAAGCAAAAACGTTATA
DNA 2: TATAACGTTTTTGCTTCTCTTAA
With B3 as the molecule, how does the Kd (BurrH [10]) read?
The Kd was 40 ± 3 nM.

B4: FA duplex 9 (A4 A12 G13) (dsDNA)
DNA 1: TTAAGAGAAGCAAAGACGTTATA
DNA 2: TATAACGTCTTTGCTTCTCTTAA
Which Kd (BurrH [10]) does the source give for B4 here?
The Kd was 35 ± 6 nM.

B5: FA duplex 14 (C4 C12 C13) (dsDNA)
DNA 1: TTAAGCGAAGCAACCACGTTATA
DNA 2: TATAACGTGGTTGCTTCGCTTAA
B5 was tested. Which Kd (BurrH [10]) did it give?
The Kd was 47 ± 5 nM.

B6: FA duplex 7 (G4 G12 T13) (dsDNA)
DNA 1: TTAAGGGAAGCAAGTACGTTATA
DNA 2: TATAACGTACTTGCTTCCCTTAA
How did the Kd (BurrH [10]) turn out when B6 was run?
Its Kd is 42 ± 7 nM.

B7: FA duplex 4 (T4 T12 A13) (dsDNA)
DNA 1: TTAAGTGAAGCAATAACGTTATA
DNA 2: TATAACGTTATTGCTTCACTTAA
How did the Kd (BurrH [10]) turn out when B7 was run?
Its Kd is 61 ± 8 nM.

B8: FA duplex 3 (G4 G12 A13) (dsDNA)
DNA 1: TTAAGGGAAGCAAGAACGTTATA
DNA 2: TATAACGTTCTTGCTTCCCTTAA
How did the Kd (BurrH [10]) turn out when B8 was run?
The Kd was 81 ± 12 nM.

B9: BurrH target G0 (dsDNA)
DNA 1: TGAAGAGAAGCAAATACGTTATA
DNA 2: TATAACGTATTTGCTTCTCTTCA
For B9, which Kd (BurrH [11]) is on record?
The Kd was 24 ± 6.3 nM.

B10: FA duplex 10 (C4 C12 G13) (dsDNA)
DNA 1: TTAAGCGAAGCAACGACGTTATA
DNA 2: TATAACGTCGTTGCTTCGCTTAA
How did the Kd (BurrH [10]) turn out when B10 was run?
The Kd was 49 ± 10 nM.

B11: FA duplex 5 (A4 A12 T13) (dsDNA)
DNA 1: TTAAGAGAAGCAAATACGTTATA
DNA 2: TATAACGTATTTGCTTCTCTTAA
With B11 as the molecule, how does the Kd (BurrH [10]) read?
Its Kd is 32 ± 7 nM.

B12: FA duplex 15 (G4 G12 C13) (dsDNA)
DNA 1: TTAAGGGAAGCAAGCACGTTATA
DNA 2: TATAACGTGCTTGCTTCCCTTAA
For B12, which Kd (BurrH [10]) is on record?
Its Kd is 59 ± 6 nM.

B13: BurrH DNA target/RNA hybrid (DNA:RNA)
DNA: TTAAGAGAAGCAAATACGTTATA
RNA: UAUAACGUAUUUGCAACUCUUAA
For B13, which Kd (BurrH [11]; blunt) is on record?
The Kd was 56 ± 6.5 nM.

B14: FA duplex 12 (T4 T12 G13) (dsDNA)
DNA 1: TTAAGTGAAGCAATGACGTTATA
DNA 2: TATAACGTCATTGCTTCACTTAA
B14 was tested. Which Kd (BurrH [10]) did it give?
Its Kd is 63 ± 5 nM.

B15: FA duplex 11 (G4 G12 G13) (dsDNA)
DNA 1: TTAAGGGAAGCAAGGACGTTATA
DNA 2: TATAACGTCCTTGCTTCCCTTAA
How did the Kd (BurrH [10]) turn out when B15 was run?
Its Kd is 90 ± 12 nM.

B16: FA duplex 2 (C4 C12 A13) (dsDNA)
DNA 1: TTAAGCGAAGCAACAACGTTATA
DNA 2: TATAACGTTGTTGCTTCGCTTAA
For B16, which Kd (BurrH [10]) is on record?
Its Kd is 44 ± 9 nM.

B17: BurrH target A0 (dsDNA)
DNA 1: TAAAGAGAAGCAAATACGTTATA
DNA 2: TATAACGTATTTGCTTCTCTTTA
How did the Kd (BurrH [11]) turn out when B17 was run?
Its Kd is 15 ± 2.8 nM.

B18: BurrH RNA target/DNA hybrid (DNA:RNA)
RNA: UUAAGAGAAGCAAAUACGUUAUA
DNA: TATAACGTATTTGCAACTCTTAA
How did the Kd (BurrH [11]; blunt) turn out when B18 was run?
The Kd was 1890 ± 438 nM.

B19: FA duplex 13 (A4 A12 C13) (dsDNA)
DNA 1: TTAAGAGAAGCAAACACGTTATA
DNA 2: TATAACGTGTTTGCTTCTCTTAA
How did the Kd (BurrH [10]) turn out when B19 was run?
The Kd was 39 ± 10 nM.

B20: BurrH target C0 (dsDNA)
DNA 1: TCAAGAGAAGCAAATACGTTATA
DNA 2: TATAACGTATTTGCTTCTCTTGA
For B20, which Kd (BurrH [11]) is on record?
The Kd was 15 ± 3.2 nM.
